# US20230365662A1
# “And” between values parts separate entries of the source, which are not always exact repeats. Identical values can stand only once.
# Target: HRgpA-6H (Porphyromonas gingivalis) (UniProt P28784)
# Test: ELISA on coated HRgpA-6H
# Chain of UniProt P28784 (P28784 228-991 limits assumed): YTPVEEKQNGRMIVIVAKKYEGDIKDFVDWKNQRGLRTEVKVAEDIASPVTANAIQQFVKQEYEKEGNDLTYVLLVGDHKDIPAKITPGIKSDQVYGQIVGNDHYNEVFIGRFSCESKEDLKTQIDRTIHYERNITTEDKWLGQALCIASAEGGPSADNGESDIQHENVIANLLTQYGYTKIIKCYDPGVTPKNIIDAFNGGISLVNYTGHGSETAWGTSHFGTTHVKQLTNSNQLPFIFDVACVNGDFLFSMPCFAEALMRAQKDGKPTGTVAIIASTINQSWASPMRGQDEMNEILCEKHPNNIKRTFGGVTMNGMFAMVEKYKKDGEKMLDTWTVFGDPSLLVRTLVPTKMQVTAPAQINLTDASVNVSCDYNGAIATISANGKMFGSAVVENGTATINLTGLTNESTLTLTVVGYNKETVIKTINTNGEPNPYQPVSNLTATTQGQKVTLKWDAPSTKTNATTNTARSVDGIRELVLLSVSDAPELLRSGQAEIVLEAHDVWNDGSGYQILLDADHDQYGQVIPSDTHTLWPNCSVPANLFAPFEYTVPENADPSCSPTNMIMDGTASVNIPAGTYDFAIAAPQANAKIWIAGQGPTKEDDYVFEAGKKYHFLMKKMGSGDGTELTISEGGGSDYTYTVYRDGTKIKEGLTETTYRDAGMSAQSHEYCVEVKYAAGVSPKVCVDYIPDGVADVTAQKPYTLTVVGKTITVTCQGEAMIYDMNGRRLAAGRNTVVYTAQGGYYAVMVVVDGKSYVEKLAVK
Binder,OD450nm,Ratio OD(Variant)/OD(WT)
"KB001 mouse Fab FASEBA VH Y32N (Fab, V domains shown) VH: EVQLKQSGPGLVAPSQSLSITCTVSGFSLSINSVHWVRQPPGKGLEWLGMIWGGGSSDYNSALKSRLSISKDNSKSQVFLKMNSLQTDDTAMYYCARNGNFYAMDYWGQGTSVTVSS VL: QIVLTQSPAIMSASLGERVTMTCTASSSVSSSFLHWYQQKPGSSPQLWIYSTSNLASGVPARFSGSGSGTSYSLTISSMEAEDAATYYCHQYHHSPYIYTFGGGTKLEIK",0.826 and 0.775,0.976 and 0.916
"KB001 mouse Fab FASEBA VH S56E (Fab, V domains shown) VH: EVQLKQSGPGLVAPSQSLSITCTVSGFSLSIYSVHWVRQPPGKGLEWLGMIWGGGESDYNSALKSRLSISKDNSKSQVFLKMNSLQTDDTAMYYCARNGNFYAMDYWGQGTSVTVSS VL: QIVLTQSPAIMSASLGERVTMTCTASSSVSSSFLHWYQQKPGSSPQLWIYSTSNLASGVPARFSGSGSGTSYSLTISSMEAEDAATYYCHQYHHSPYIYTFGGGTKLEIK",0.772 and 0.713,0.878 and 0.811
"KB001 mouse Fab FASEBA VH S56L (Fab, V domains shown) VH: EVQLKQSGPGLVAPSQSLSITCTVSGFSLSIYSVHWVRQPPGKGLEWLGMIWGGGLSDYNSALKSRLSISKDNSKSQVFLKMNSLQTDDTAMYYCARNGNFYAMDYWGQGTSVTVSS VL: QIVLTQSPAIMSASLGERVTMTCTASSSVSSSFLHWYQQKPGSSPQLWIYSTSNLASGVPARFSGSGSGTSYSLTISSMEAEDAATYYCHQYHHSPYIYTFGGGTKLEIK",0.71,0.807
"KB001 mouse Fab FASEBA VH S57M (Fab, V domains shown) VH: EVQLKQSGPGLVAPSQSLSITCTVSGFSLSIYSVHWVRQPPGKGLEWLGMIWGGGSMDYNSALKSRLSISKDNSKSQVFLKMNSLQTDDTAMYYCARNGNFYAMDYWGQGTSVTVSS VL: QIVLTQSPAIMSASLGERVTMTCTASSSVSSSFLHWYQQKPGSSPQLWIYSTSNLASGVPARFSGSGSGTSYSLTISSMEAEDAATYYCHQYHHSPYIYTFGGGTKLEIK",0.748,0.85
"KB001 mouse Fab FASEBA VH G53S (Fab, V domains shown) VH: EVQLKQSGPGLVAPSQSLSITCTVSGFSLSIYSVHWVRQPPGKGLEWLGMIWSGGSSDYNSALKSRLSISKDNSKSQVFLKMNSLQTDDTAMYYCARNGNFYAMDYWGQGTSVTVSS VL: QIVLTQSPAIMSASLGERVTMTCTASSSVSSSFLHWYQQKPGSSPQLWIYSTSNLASGVPARFSGSGSGTSYSLTISSMEAEDAATYYCHQYHHSPYIYTFGGGTKLEIK",0.686,0.861
"KB001 mouse Fab FASEBA VH S56M (Fab, V domains shown) VH: EVQLKQSGPGLVAPSQSLSITCTVSGFSLSIYSVHWVRQPPGKGLEWLGMIWGGGMSDYNSALKSRLSISKDNSKSQVFLKMNSLQTDDTAMYYCARNGNFYAMDYWGQGTSVTVSS VL: QIVLTQSPAIMSASLGERVTMTCTASSSVSSSFLHWYQQKPGSSPQLWIYSTSNLASGVPARFSGSGSGTSYSLTISSMEAEDAATYYCHQYHHSPYIYTFGGGTKLEIK",0.809,0.92
"KB001 mouse Fab FASEBA VH H35V (Fab, V domains shown) VH: EVQLKQSGPGLVAPSQSLSITCTVSGFSLSIYSVVWVRQPPGKGLEWLGMIWGGGSSDYNSALKSRLSISKDNSKSQVFLKMNSLQTDDTAMYYCARNGNFYAMDYWGQGTSVTVSS VL: QIVLTQSPAIMSASLGERVTMTCTASSSVSSSFLHWYQQKPGSSPQLWIYSTSNLASGVPARFSGSGSGTSYSLTISSMEAEDAATYYCHQYHHSPYIYTFGGGTKLEIK",0.706,0.856
"KB001 mouse Fab FASEBA VH S56N (Fab, V domains shown) VH: EVQLKQSGPGLVAPSQSLSITCTVSGFSLSIYSVHWVRQPPGKGLEWLGMIWGGGNSDYNSALKSRLSISKDNSKSQVFLKMNSLQTDDTAMYYCARNGNFYAMDYWGQGTSVTVSS VL: QIVLTQSPAIMSASLGERVTMTCTASSSVSSSFLHWYQQKPGSSPQLWIYSTSNLASGVPARFSGSGSGTSYSLTISSMEAEDAATYYCHQYHHSPYIYTFGGGTKLEIK",0.759 and 0.743,0.863 and 0.845
"KB001 mouse Fab FASEBA VH G55N (Fab, V domains shown) VH: EVQLKQSGPGLVAPSQSLSITCTVSGFSLSIYSVHWVRQPPGKGLEWLGMIWGGNSSDYNSALKSRLSISKDNSKSQVFLKMNSLQTDDTAMYYCARNGNFYAMDYWGQGTSVTVSS VL: QIVLTQSPAIMSASLGERVTMTCTASSSVSSSFLHWYQQKPGSSPQLWIYSTSNLASGVPARFSGSGSGTSYSLTISSMEAEDAATYYCHQYHHSPYIYTFGGGTKLEIK",0.652,0.81
"KB001 mouse Fab FASEBA VH G53P (Fab, V domains shown) VH: EVQLKQSGPGLVAPSQSLSITCTVSGFSLSIYSVHWVRQPPGKGLEWLGMIWPGGSSDYNSALKSRLSISKDNSKSQVFLKMNSLQTDDTAMYYCARNGNFYAMDYWGQGTSVTVSS VL: QIVLTQSPAIMSASLGERVTMTCTASSSVSSSFLHWYQQKPGSSPQLWIYSTSNLASGVPARFSGSGSGTSYSLTISSMEAEDAATYYCHQYHHSPYIYTFGGGTKLEIK",0.754 and 0.716,0.947 and 0.899
"KB001 mouse Fab FASEBA VH S57R (Fab, V domains shown) VH: EVQLKQSGPGLVAPSQSLSITCTVSGFSLSIYSVHWVRQPPGKGLEWLGMIWGGGSRDYNSALKSRLSISKDNSKSQVFLKMNSLQTDDTAMYYCARNGNFYAMDYWGQGTSVTVSS VL: QIVLTQSPAIMSASLGERVTMTCTASSSVSSSFLHWYQQKPGSSPQLWIYSTSNLASGVPARFSGSGSGTSYSLTISSMEAEDAATYYCHQYHHSPYIYTFGGGTKLEIK",0.796,0.905
"KB001 mouse Fab FASEBA VH V34M (Fab, V domains shown) VH: EVQLKQSGPGLVAPSQSLSITCTVSGFSLSIYSMHWVRQPPGKGLEWLGMIWGGGSSDYNSALKSRLSISKDNSKSQVFLKMNSLQTDDTAMYYCARNGNFYAMDYWGQGTSVTVSS VL: QIVLTQSPAIMSASLGERVTMTCTASSSVSSSFLHWYQQKPGSSPQLWIYSTSNLASGVPARFSGSGSGTSYSLTISSMEAEDAATYYCHQYHHSPYIYTFGGGTKLEIK",0.793 and 0.791,0.962 and 0.959
"KB001 mouse Fab FASEBA VH I51Q/M92I (Fab, V domains shown) VH: EVQLKQSGPGLVAPSQSLSITCTVSGFSLSIYSVHWVRQPPGKGLEWLGMQWGGGSSDYNSALKSRLSISKDNSKSQVFLKMNSLQTDDTAIYYCARNGNFYAMDYWGQGTSVTVSS VL: QIVLTQSPAIMSASLGERVTMTCTASSSVSSSFLHWYQQKPGSSPQLWIYSTSNLASGVPARFSGSGSGTSYSLTISSMEAEDAATYYCHQYHHSPYIYTFGGGTKLEIK",0.722,0.817
"KB001 mouse Fab FASEBA VH S56P (Fab, V domains shown) VH: EVQLKQSGPGLVAPSQSLSITCTVSGFSLSIYSVHWVRQPPGKGLEWLGMIWGGGPSDYNSALKSRLSISKDNSKSQVFLKMNSLQTDDTAMYYCARNGNFYAMDYWGQGTSVTVSS VL: QIVLTQSPAIMSASLGERVTMTCTASSSVSSSFLHWYQQKPGSSPQLWIYSTSNLASGVPARFSGSGSGTSYSLTISSMEAEDAATYYCHQYHHSPYIYTFGGGTKLEIK",0.855 and 0.788 and 0.824,0.972 and 0.896 and 0.937
"KB001 mouse Fab FASEBA VH S57H (Fab, V domains shown) VH: EVQLKQSGPGLVAPSQSLSITCTVSGFSLSIYSVHWVRQPPGKGLEWLGMIWGGGSHDYNSALKSRLSISKDNSKSQVFLKMNSLQTDDTAMYYCARNGNFYAMDYWGQGTSVTVSS VL: QIVLTQSPAIMSASLGERVTMTCTASSSVSSSFLHWYQQKPGSSPQLWIYSTSNLASGVPARFSGSGSGTSYSLTISSMEAEDAATYYCHQYHHSPYIYTFGGGTKLEIK",0.8,0.91
"KB001 mouse Fab FASEBA VH Y32F (Fab, V domains shown) VH: EVQLKQSGPGLVAPSQSLSITCTVSGFSLSIFSVHWVRQPPGKGLEWLGMIWGGGSSDYNSALKSRLSISKDNSKSQVFLKMNSLQTDDTAMYYCARNGNFYAMDYWGQGTSVTVSS VL: QIVLTQSPAIMSASLGERVTMTCTASSSVSSSFLHWYQQKPGSSPQLWIYSTSNLASGVPARFSGSGSGTSYSLTISSMEAEDAATYYCHQYHHSPYIYTFGGGTKLEIK",0.814 and 0.807,0.962 and 0.953
"KB001 mouse Fab FASEBA VH G55D (Fab, V domains shown) VH: EVQLKQSGPGLVAPSQSLSITCTVSGFSLSIYSVHWVRQPPGKGLEWLGMIWGGDSSDYNSALKSRLSISKDNSKSQVFLKMNSLQTDDTAMYYCARNGNFYAMDYWGQGTSVTVSS VL: QIVLTQSPAIMSASLGERVTMTCTASSSVSSSFLHWYQQKPGSSPQLWIYSTSNLASGVPARFSGSGSGTSYSLTISSMEAEDAATYYCHQYHHSPYIYTFGGGTKLEIK",0.697,0.866
"KB001 mouse Fab FASEBA VH I51V (Fab, V domains shown) VH: EVQLKQSGPGLVAPSQSLSITCTVSGFSLSIYSVHWVRQPPGKGLEWLGMVWGGGSSDYNSALKSRLSISKDNSKSQVFLKMNSLQTDDTAMYYCARNGNFYAMDYWGQGTSVTVSS VL: QIVLTQSPAIMSASLGERVTMTCTASSSVSSSFLHWYQQKPGSSPQLWIYSTSNLASGVPARFSGSGSGTSYSLTISSMEAEDAATYYCHQYHHSPYIYTFGGGTKLEIK",0.798,0.903
"KB001 mouse Fab FASEBA VH S56T (Fab, V domains shown) VH: EVQLKQSGPGLVAPSQSLSITCTVSGFSLSIYSVHWVRQPPGKGLEWLGMIWGGGTSDYNSALKSRLSISKDNSKSQVFLKMNSLQTDDTAMYYCARNGNFYAMDYWGQGTSVTVSS VL: QIVLTQSPAIMSASLGERVTMTCTASSSVSSSFLHWYQQKPGSSPQLWIYSTSNLASGVPARFSGSGSGTSYSLTISSMEAEDAATYYCHQYHHSPYIYTFGGGTKLEIK",0.838 and 0.844 and 0.853,0.953 and 0.96 and 0.97
"KB001 mouse Fab FASEBA VH S57T (Fab, V domains shown) VH: EVQLKQSGPGLVAPSQSLSITCTVSGFSLSIYSVHWVRQPPGKGLEWLGMIWGGGSTDYNSALKSRLSISKDNSKSQVFLKMNSLQTDDTAMYYCARNGNFYAMDYWGQGTSVTVSS VL: QIVLTQSPAIMSASLGERVTMTCTASSSVSSSFLHWYQQKPGSSPQLWIYSTSNLASGVPARFSGSGSGTSYSLTISSMEAEDAATYYCHQYHHSPYIYTFGGGTKLEIK",0.843 and 0.849,0.958 and 0.965
"KB001 mouse Fab FASEBA VH D58S (Fab, V domains shown) VH: EVQLKQSGPGLVAPSQSLSITCTVSGFSLSIYSVHWVRQPPGKGLEWLGMIWGGGSSSYNSALKSRLSISKDNSKSQVFLKMNSLQTDDTAMYYCARNGNFYAMDYWGQGTSVTVSS VL: QIVLTQSPAIMSASLGERVTMTCTASSSVSSSFLHWYQQKPGSSPQLWIYSTSNLASGVPARFSGSGSGTSYSLTISSMEAEDAATYYCHQYHHSPYIYTFGGGTKLEIK",0.646,0.817
